Data: patent US20090275511A1 (IPSEN PHARMA S A S, published 2009)
Blank lines part the entries; values can stand above or below the binder they belong to. Numbered stars: 1 amine (or outer) side, 2 acyl side, 3 side chain; on linkers, the order of the positions; unused ones are H or OH. Square brackets hold non-standard residues; d marks the D form. Glu(NH-hexyl) = N5-hexyl-L-glutamine (glutamic acid gamma-hexylamide), CCCCCCNC(=O)CC[C@H](N[*:1])C(=O)[*:2]; 1‑Apc = not defined here; Aib = CC(C)(N)C(=O)O

Target: T1, human GH secretagogue receptor (human, UniProt Q92847 1-366)
T1 construct: whole, on cells; the Ca2+ assay used the whole cells; also called hGHS-R; ghrelin receptor
Assay: competition with 0.05 nM (125I)ghrelin on membranes of CHO-K1 cells expressing hGHS-R, filtration
Experimental: The homogenates were washed twice by centrifugation (39,000 g/10 minutes) and the final pellets were resuspended in about 50 mM Tris-HCl containing 2.5 mM MgCl₂ and 0.1% bovine serum albumin (BSA). For the selected assay, aliquots of approximately 0.4 ml were incubated with 0.05 nM (¹²⁵I)ghrelin (˜2000 Ci/mmol; Perkin Elmer Life Sciences®, Boston, Mass., U.S.A.) with and without 0.05 ml of unlabeled competing test peptide.

T1 sequence (Q92847 whole entry): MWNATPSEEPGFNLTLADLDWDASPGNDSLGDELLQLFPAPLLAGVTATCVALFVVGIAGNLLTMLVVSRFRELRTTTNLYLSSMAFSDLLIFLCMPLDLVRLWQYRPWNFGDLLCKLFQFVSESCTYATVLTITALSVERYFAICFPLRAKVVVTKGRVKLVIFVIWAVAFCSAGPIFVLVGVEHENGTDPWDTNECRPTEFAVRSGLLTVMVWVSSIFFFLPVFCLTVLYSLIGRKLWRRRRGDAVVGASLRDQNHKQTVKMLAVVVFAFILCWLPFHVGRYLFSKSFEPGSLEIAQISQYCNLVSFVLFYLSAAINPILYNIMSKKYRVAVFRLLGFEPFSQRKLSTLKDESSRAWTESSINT

Ki: 40 nM
Binder: Ac-[1‑Apc][Aib][Glu(NH-hexyl)]FLSPEH[Aib]RVQQRKESKKPPAKLQPR-NH2 (reading uncertain, Synthetic analog of human ghrelin(1-28)) [(Ac-1-Apc^1, Aib^2,10, Glu(NH-hexyl)^3)hGhrelin(1-28)-NH2]

Ki: 370 nM
B1: (Ac-Inp^1, Aib^2,10, Glu(NH-hexyl)^3)hGhrelin(1-28)-NH2 (peptide)
peptide: XXEFLSPEHXRVQQRKESKKPPAKLQPR
HELM: PEPTIDE1{[ac].[O=C(C1CCN([*:1])CC1)[*:2]].[Aib].[CCCCCCNC(=O)CC[C@H](N[*:1])C(=O)[*:2]].F.L.S.P.E.H.[Aib].R.V.Q.Q.R.K.E.S.K.K.P.P.A.K.L.Q.P.R.[am]}$$$$V2.0
SMILES: CCCCCCNC(=O)CC[C@H](NC(=O)C(C)(C)NC(=O)C1CCN(C(C)=O)CC1)C(=O)N[C@@H](Cc1ccccc1)C(=O)N[C@@H](CC(C)C)C(=O)N[C@@H](CO)C(=O)N1CCC[C@H]1C(=O)N[C@@H](CCC(=O)O)C(=O)N[C@@H](Cc1c[nH]cn1)C(=O)NC(C)(C)C(=O)N[C@@H](CCCNC(=N)N)C(=O)N[C@H](C(=O)N[C@@H](CCC(N)=O)C(=O)N[C@@H](CCC(N)=O)C(=O)N[C@@H](CCCNC(=N)N)C(=O)N[C@@H](CCCCN)C(=O)N[C@@H](CCC(=O)O)C(=O)N[C@@H](CO)C(=O)N[C@@H](CCCCN)C(=O)N[C@@H](CCCCN)C(=O)N1CCC[C@H]1C(=O)N1CCC[C@H]1C(=O)N[C@@H](C)C(=O)N[C@@H](CCCCN)C(=O)N[C@@H](CC(C)C)C(=O)N[C@@H](CCC(N)=O)C(=O)N1CCC[C@H]1C(=O)N[C@@H](CCCNC(=N)N)C(N)=O)C(C)C
notes: Synthetic analog of human ghrelin(1-28)
